Data from US20230212304A1.

Columns and labels:
[1] = molecular target: cynomolgus monkey CTLA4-his protein (Acro biosystems, Cat#CT4-C5227) (cynomolgus monkey) (UniProt G7PL88); assay: SPR, Biacore T200; benchmark on Protein G chip, CTLA4-his as analyte
[2] = molecular target: cynomolgus monkey CTLA4-his protein (Acro biosystems, Cat#CT4-C5227) (cynomolgus monkey) (UniProt G7PL88); assay: SPR, Biacore; antibody captured on anti-human IgG CM5 chip, CTLA4-his as analyte

cynomolgus monkey CTLA4-his protein (Acro biosystems, Cat#CT4-C5227) (cynomolgus monkey), sequence (G7PL88 entry or part of it): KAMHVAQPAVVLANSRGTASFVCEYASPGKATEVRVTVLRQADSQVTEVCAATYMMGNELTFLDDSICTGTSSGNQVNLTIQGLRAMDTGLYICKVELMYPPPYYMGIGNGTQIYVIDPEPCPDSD

Yervoy® (Bristol-Myers Squibb Co, Cat# NDC: 0003-2327-11) (antibody)
Kd [1]: 2.97 nM | Kd [2]: 2.2 nM
